Assay results published in patent US20200407435A1.
Values joined by “and” are separate entries in the source; they are usually repeats but may differ in a detail not shown here. Identical values can stand only once.

Biological target: rhAngiopoietin-2 (R&D systems cat 623-AN/CF) (human) (UniProt O15123)
Assay: cell-based or functional assay

Chain of rhAngiopoietin-2 (R&D systems cat 623-AN/CF) (human) (O15123 19-496 limits assumed): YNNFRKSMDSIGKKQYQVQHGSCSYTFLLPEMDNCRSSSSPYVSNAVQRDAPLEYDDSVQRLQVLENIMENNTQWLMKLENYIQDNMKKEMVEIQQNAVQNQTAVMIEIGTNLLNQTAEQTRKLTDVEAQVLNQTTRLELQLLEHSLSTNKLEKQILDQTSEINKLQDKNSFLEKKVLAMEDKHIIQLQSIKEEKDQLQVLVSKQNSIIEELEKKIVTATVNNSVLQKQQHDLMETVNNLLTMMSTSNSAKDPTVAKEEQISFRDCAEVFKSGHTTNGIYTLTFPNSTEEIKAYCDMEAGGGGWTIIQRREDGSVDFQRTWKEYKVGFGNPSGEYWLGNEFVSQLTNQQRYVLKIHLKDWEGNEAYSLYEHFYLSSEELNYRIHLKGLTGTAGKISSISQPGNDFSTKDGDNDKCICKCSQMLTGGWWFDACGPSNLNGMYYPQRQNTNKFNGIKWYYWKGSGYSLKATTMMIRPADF

- Tie2 phosphorylation functional assay, EC50: 4.4 nM and 2.2 nM
Substance: Nesvacumab analog (Regeneron) (antibody)
